Experimental findings from US20150291692A1 (INNATE PHARMA, published 2015) are described below.

What is called koff is a measure of how fast the partners let go of each other.

Experiment [1] deals with T1, KIR3DL2 recombinant protein (R&D Systems) (human, UniProt P43630 28-340).
T1 construct: Bought protein; also called rec KIR3DL2; recombinant KIR3DL2-Fc fusion protein; not shown: Fc part of the bought fusion protein; not described
Put plainly: SCK kinetic method.

In experiment [2] the target is T1, KIR3DL2 recombinant protein (R&D …). Put plainly: regular kinetic method.
Experiment [3] has as its target T2, KIR3DL1 expressed on cells (human, UniProt P43629 22-444).
T2 construct: also called HEK-293T/KIR3DL1
The experiment can be described thus: flow cytometry on HEK KIR3DL1 cells (row HEK-KIR3DL1).

Experiment [4] concerns the target T1, KIR3DL2 recombinant protein (R&D …). Put plainly: SPR (Biacore T100), antibody injected over immobilised recombinant KIR3DL2, bivalent affinity, pH 7.2. In general terms: SPR reads the build-up and loss of mass on a sensor chip optically.
In experiment [5] the target is T3, NK cells, including normal KIR3DL2+ NK cells (Homo sapiens, UniProt P43630).
T3 construct: full-length receptor on the cell surface; also called gate NK GaM PE+; KIR3DL2 on CD4-negative NK cells in the blood of the Sezary Syndrome patient
The experiment can be described thus: flow cytometry of whole blood of a Sezary Syndrome patient, antibody + GaM-PE against CD4; lower gate (CD4-negative NK cells).

Experiment [6] addresses T4, KIR3DL2 on fresh Sezary Syndrome cells of patients (human, UniProt P43630 22-455).
T4 construct: whole, on cells; also called SS cells
Put plainly: flow cytometry of whole blood of a Sezary Syndrome patient, antibody + GaM-PE against CD4; upper gate (CD4+ KIR3DL2+ leukemic Sezary cells).

T1 sequence (P43630 28-340 A108T): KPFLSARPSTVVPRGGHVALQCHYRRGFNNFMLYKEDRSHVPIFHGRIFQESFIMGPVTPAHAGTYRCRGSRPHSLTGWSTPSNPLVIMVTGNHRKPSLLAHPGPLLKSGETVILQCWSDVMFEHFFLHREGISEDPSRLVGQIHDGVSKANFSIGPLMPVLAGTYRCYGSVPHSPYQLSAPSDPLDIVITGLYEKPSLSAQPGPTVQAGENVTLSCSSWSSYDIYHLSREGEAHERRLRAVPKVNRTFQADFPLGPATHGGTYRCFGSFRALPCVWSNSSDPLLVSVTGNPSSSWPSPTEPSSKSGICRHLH
T2 sequence (P43629 22-444 limits assumed): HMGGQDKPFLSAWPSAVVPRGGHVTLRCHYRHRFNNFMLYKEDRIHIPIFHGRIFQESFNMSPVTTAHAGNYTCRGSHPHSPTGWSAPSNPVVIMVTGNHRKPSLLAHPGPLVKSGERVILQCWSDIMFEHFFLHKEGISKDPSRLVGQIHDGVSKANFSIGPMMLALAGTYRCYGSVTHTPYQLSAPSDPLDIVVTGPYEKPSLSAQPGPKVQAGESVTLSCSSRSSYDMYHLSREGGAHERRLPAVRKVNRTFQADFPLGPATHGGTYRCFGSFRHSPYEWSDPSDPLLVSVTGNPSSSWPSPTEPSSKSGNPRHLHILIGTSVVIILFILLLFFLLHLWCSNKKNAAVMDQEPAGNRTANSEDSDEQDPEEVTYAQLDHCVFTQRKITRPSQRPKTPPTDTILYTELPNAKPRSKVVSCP
T3 sequence (P43630 22-455 limits assumed): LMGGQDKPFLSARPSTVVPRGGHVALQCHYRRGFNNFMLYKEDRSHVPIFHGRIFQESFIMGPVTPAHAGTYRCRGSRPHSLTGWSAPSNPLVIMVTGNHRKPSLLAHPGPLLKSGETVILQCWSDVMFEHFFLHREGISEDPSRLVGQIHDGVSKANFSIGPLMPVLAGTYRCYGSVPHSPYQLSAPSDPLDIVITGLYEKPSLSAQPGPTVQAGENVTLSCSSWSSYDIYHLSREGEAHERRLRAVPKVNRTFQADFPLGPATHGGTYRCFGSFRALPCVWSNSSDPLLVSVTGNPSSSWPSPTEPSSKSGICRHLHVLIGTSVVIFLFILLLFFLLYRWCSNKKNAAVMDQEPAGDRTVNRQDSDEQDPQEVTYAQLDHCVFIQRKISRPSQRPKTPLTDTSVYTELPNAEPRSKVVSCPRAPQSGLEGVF
T4 sequence (P43630 22-455): as the sequence (P43630 22-455 limits assumed) above

B1: Hum23-K32-15C11 (antibody, V domains shown)
VH: EVQLVESGGGLVQPGGSLRLSCAASGFTFSDAWMDWVRQAPGKGLEWVGEIRSKANNHATYYAASVKGRFTISRDDSKNSLYLQMNSLKTEDTAVYYCTGGYYPVYWGQGTLVTVSS
VL: DIQMTQSPSSLSASVGDRVTITCKASQDINKNIAWYQHKPGKAPKLLIHYTSTLQPGVPSRFSGSGSGRDYTFTISSLQPEDIATYYCLQYDNLLTFGGGTKVEIK
notes: also called H2/L3
On to B1, for which, in experiment [1], the Kd is 0.5 nM and the off-rate (koff) is 0.00014 s⁻¹. In experiment [2], the Kd was 1.24 nM and the koff came out at 0.000329 s⁻¹.

B2: Hum22-K32-15C11 (antibody, V domains shown)
VH: EVQLVESGGGLVQPGGSLRLSCAASGFTFSDAWMDWVRQAPGKGLEWVGEIRSKANNHATYYAASVKGRFTISRDDSKNSLYLQMNSLKTEDTAVYYCTGGYYPVYWGQGTLVTVSS
VL: DIQMTQSPSSLSASVGDRVTITCKASQDINKNIAWYQHKPGKAPKLLIHYTSTLQPGVPSRFSGSGSGTDFTFTISSLQPEDIATYYCLQYDNLLTFGGGTKVEIK
notes: also called H2/L2
For B2, in experiment [1], the Kd turned out to be 0.65 nM and the koff is 0.000156 s⁻¹. In experiment [2], the Kd stood at 1.74 nM and the off-rate (koff) turned out to be 0.000385 s⁻¹.

B3: Hum32-K32-15C11 (antibody, V domains shown)
VH: EVQLVESGGGLVQPGGSLRLSCAASGFTFSDAWMDWVRQAPGKGLEWVAEIRSKANNHATYYAASVKGRFTISRDDSKNSVYLQMNSLKTEDTAVYYCTGGYYPVYWGQGTLVTVSS
VL: DIQMTQSPSSLSASVGDRVTITCKASQDINKNIAWYQHKPGKAPKLLIHYTSTLQPGVPSRFSGSGSGTDFTFTISSLQPEDIATYYCLQYDNLLTFGGGTKVEIK
notes: also called H3/L2
As for B3, in experiment [1], the Kd was 0.51 nM and the off-rate constant (koff) came to 0.000104 s⁻¹. For the same molecule, in experiment [2], the Kd worked out at 1.29 nM and the dissociation rate constant (koff) came out at 0.00025 s⁻¹.

B4: Hum13-K32-15C11 (antibody, V domains shown)
VH: EVQLVESGGGLVQPGGSLRLSCAASGFTFSDAWMDWVRQAPGKGLEWVGRIRSKANNHATAYAASVKGRFTISRDDSKNSLYLQMNSLKTEDTAVYYCTGGYYPVYWGQGTLVTVSS
VL: DIQMTQSPSSLSASVGDRVTITCKASQDINKNIAWYQHKPGKAPKLLIHYTSTLQPGVPSRFSGSGSGRDYTFTISSLQPEDIATYYCLQYDNLLTFGGGTKVEIK
notes: also called H1/L3
In the case of B4, the Kd in experiment [1] was determined as 1.13 nM; in experiment [2], 4.59 nM. For the same molecule, the off-rate constant (koff) turned out to be 0.000286 s⁻¹ in experiment [1] and 0.00105 s⁻¹ in experiment [2].

B5: Hum12-K32-15C11 (antibody, V domains shown)
VH: EVQLVESGGGLVQPGGSLRLSCAASGFTFSDAWMDWVRQAPGKGLEWVGRIRSKANNHATAYAASVKGRFTISRDDSKNSLYLQMNSLKTEDTAVYYCTGGYYPVYWGQGTLVTVSS
VL: DIQMTQSPSSLSASVGDRVTITCKASQDINKNIAWYQHKPGKAPKLLIHYTSTLQPGVPSRFSGSGSGTDFTFTISSLQPEDIATYYCLQYDNLLTFGGGTKVEIK
notes: also called H1/L2; H1-L2
Regarding B5, in experiment [1], the Kd turned out to be 1.63 nM and the koff was 0.000109 s⁻¹. Further, in experiment [2], the Kd was determined as 5.61 nM and the koff is 0.00132 s⁻¹.

B6: Hum33-K32-15C11 (antibody, V domains shown)
VH: EVQLVESGGGLVQPGGSLRLSCAASGFTFSDAWMDWVRQAPGKGLEWVAEIRSKANNHATYYAASVKGRFTISRDDSKNSVYLQMNSLKTEDTAVYYCTGGYYPVYWGQGTLVTVSS
VL: DIQMTQSPSSLSASVGDRVTITCKASQDINKNIAWYQHKPGKAPKLLIHYTSTLQPGVPSRFSGSGSGRDYTFTISSLQPEDIATYYCLQYDNLLTFGGGTKVEIK
notes: also called H3/L3; H3-L3
As to B6, in experiment [1], the Kd was 0.33 nM and the koff was 7.8e-05 s⁻¹. In addition, in experiment [2], the Kd was found to be 0.78 nM and the off-rate (koff) was 0.00018 s⁻¹.

B7: chimeric 15C11 of human IgG1 Fc isotype (antibody, V domains shown)
VH: EVKLEESGGGLVQPGGSMKLSCAASGFTFSDAWMDWVRQSPEKGLEWVAEIRSKANNHATYYAESVKGRFTISRDDSKSSVYLRMNSLRAEDTGIYYCTGGYYPVYWGQGTLVTVSA
VL: DIQMTQSPSSLSASLGGKVTITCKASQDINKNIAWYQHKPGKGPRLLIHYTSTLQPGFPSRFSGSGSGRDYSFSISNLEPEDLATYYCLQYDNLLTFGGGTKLEIK
notes: Human-mouse chimeric antibody with the variable regions of murine 15C11; also called chim15C11; Chim15C11
With B7, in experiment [1], the Kd was 0.22 nM and the koff amounted to 0.000108 s⁻¹. Further, in experiment [2], the Kd was determined as 0.68 nM and the koff stood at 0.00029 s⁻¹.

B8: antibody 22B2 (antibody, mouse IgG1, V domains shown)
VH: QIQLVQSGPELKKPGETVKISCKASGYTFTNYGMNWVKQAPGKGLKWMGWINTYTGEPTYADDFKGRFAFSLETSATTAYLQINNLKNEDMATYFCSRSFGSTYGDYWGQGTTLTVSS
VL: DVLMTQTPLSLPVSLGDQASISCRSSQTIVHSNGNTYLEWYLQKPGQSPKLLIYKVSNRFSGVPDRFSGSGSGTDFTLKISRVEAEDLGVYYCFQGSHVPWTFGGGTKLEIK
As to B8, the binding result in experiment [3] is given as “no binding”. The Kd in experiment [4] worked out at 2.2 nM. In experiment [5], the “% of cells in gate NK GaM PE+” value worked out at 11.6%. In experiment [6], the “% of cells in gate CD4 GaM PE+” value amounted to 7.7%.
